Laboratory results reported in article PMC9223271 (Nature Communications, 2022).

B1: S2E12 (antibody, V domains shown)
VH: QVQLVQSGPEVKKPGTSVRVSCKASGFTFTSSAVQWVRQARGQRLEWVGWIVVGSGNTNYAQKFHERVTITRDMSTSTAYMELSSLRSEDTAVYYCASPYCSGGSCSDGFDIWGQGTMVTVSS
VL: DIVLTQTPGTLSLSPGERATLSCRASQSVSSSYLAWYQQKPGQAPRLLIYGASSRATGIPDRFSGSGSGTDFTLTISRLEPEDFAVYYCQQYVGLTGWTFGQGTKVEIK
notes: source: generated by the authors
B2: ZCB11 (human IgG1 monoclonal antibody) (antibody, V domains shown)
VH: EVQLVQSGPEVKKPGTSVKVACKASGFTFITPVSMQWVRQARGQRLEWLGWIVLASGNTDYAQKFQERVTIIRDMSTSTAYMELSRLRTEDTAVYYCAAPSCSRTICSDGFDIWGQGTMVTVSS
VL: EIVLTQSPGTLSLSPGERATLSCRASQSVSSSYLAWFQQKPGQAPRLLIFAASSRAIGIPARFSGSGSGTDFTLTISRLEPEDFAVYYCQQYSSSPWTFGQGTKVEIK
notes: also called bNAb ZCB11

Target: T1, SARS-CoV-2 RBD protein (recombinant, WT) (SARS-CoV-2 wild type (Wuhan-Hu-1 …, UniProt P0DTC2))
T1 construct: also called WT RBD
Assay: SPR
Conditions: both partners purified

| Binder | binding result | Kd |
| --- | --- | --- |
| B1 | binds | – |
| B2 | – | 0.0575 nM |
